From the DeepSol protein solubility set

Assay: soluble on expression in E. coli; label from the status in PepcDB or PDB records

Sequence | soluble on expression in E. coli
MKTKNEPKVILELAKESDLPEFQKKLQEAFAIAVIETFGDCEDGPIPSDNDVQESFNAPGAVVYHILQDGKNVGGAVVRINSQTNHNSLDLFYVSPEYHSQGIGLSAWKAIEAQYPDTVLWETVTPYFEKRNINFYVNKCGFHIVEFYNEHHSNPHMHRNGREDDKPLLNDDDFFRFVKIMKKKD | not soluble
MEIKLQGKVSLVTGSTRGIGRAIAEKLASAGSTVIITGTSGERAKAVAEEIANKYGVKAHGVEMNLLSEESINKAFEEIYNLVDGIDILVNNAGITRDKLFLRMSLLDWEEVLKVNLTGTFLVTQNSLRKMIKQRWGRIVNISSVVGFTGNVGQVNYSTTKAGLIGFTKSLAKELAPRNVLVNAVAPGFIETDMTAVLSEEIKQKYKEQIPLGRFGSPEEVANVVLFLCSELASYITGEVIHVNGGMF | soluble
MGKVPEEVRSYLMEAHSLAGQWSLPNDRGDHTNSEAYDVNSVAIIGGGTMGKAMAICFGLAGIETFLVVRNEQRCKQELEVMYAREKSFKRLNDKRIEKINANLKITSDFHKLSNCDLIVESVIEDMKLKKELFANLENICKSTCIFGTNTSSLDLNEISSVLRDPSNLVGIHFFNPANVIRLVEIIYGSHTSSQAIATAFQACESIKKLPVLVGNCKSFVFNRLLHVYFDQSQKLMYEYGYLPHQIDKIITNFGFLMGPMTVADMNGFDVMEKLKKENGLEPNPIEKEMWRLKRYGRKTNKGFYKYDDKTQRKENDTEMEQIIRRVSQNAKSNIQIINDQDVINFMLYPTVNEGYRCIEEGVISNESLIDIMFILGFGWPIHSGGPMRFGKTEGLDKIANMLVHWSSLEPKESAYIVADALKTANNKLMSSKL | soluble
MSLYPKAYIDYLVEFHATRDYFECHEILEEYWKEDPPKKRKRYWVGFIQLAVALYHHRRQNTAGAKRLMANSIRILQAEHRAVEDLGLDHGRLLELMQSVYEQIETVSAYKSIILPIKDEKLEEACRIECRKKKYTWGQPSALSNIFLIDKHRLRDRTDVIREREKEIERRKKSRDEGHHHHHH | soluble
MLRAKLLSWQEGVGSKTFEFDVDVEPRSYVISKVSQLSPIIASEDLTVCEGEVAVVGTRVIEIPENTVVRPVAAISHANGFVADVIECGAPGMVEDEKCINHAVFIPTRSGDVKEGDLLGMLRINFVRTGLLSRVIPSKPRVEERTVKASLTWVEGGVFYRENVTGTFSGYFESERCSLLPIVADERVRIEKGGVSAVEIERVDVKGGSIITPYGLAANAFAQLLDLVGGRTRKFEEDRVFDEAVLVGFSDGVVEKGEVLGLVCVMGESSGGGNSRQLQFSRKAGKGVVKTIHEYRSKPLRVGRKGEWRPAISDENRKLIRGVAEIIKIRPINVPDYAVVNPLGIMRQAYGTMVGGIANEPWSLESRKTIEEVVFLPIMDGEVRKGQLIGVFNVTRVAEGKLLEHHHHHH | soluble
MGHHHHHHSHMYAAGLGMLEPTKEPLKPLSAAEKIASIGQTATMSPDMNTCTSDQFQESLPPVQFDWSSSGLTNPLDGVDPELYELTTSKLEISTSSLKVTDAFARLMSTVEKTSTSTSRKPKREEHLSEEAIKVIAGLPDLTFMHAKVLMFPATLTPSTSSQEKADG | not soluble
SNGSSVASTSPSVKCKEDQGLNGHEEKENPFAEYMWMENEEDFNRQVEEELQEQDFLDRCFQEMLDEEDQDWFIPARDLPQAVGHLQQQLNGLSVGDSHESEDILSKSNLNPDAKEFVPGVKY | soluble
MNDDLCYKLNYLARLILSKVNEKIKPHGVTQGQLPVLCCLHDAEGQTQAELCKNIQVEQPTMANTLRRMERDGLIFRTASDKDKRQSRVYITERTRPTVEALQEKRDEVVAAMVRHMSPEDLATFTRLLDVATKALENPETE | not soluble
MAHHHHHHMAHGSFDAVRKEMETQEKIIATLQRDNESLLREKKEILSRCKQLEHDFEHLEAKHSLLLSAQQDFAVRSNMHTANDSAKIVNLQAQVEELQTNLETEKRRCALLLQERNDLAQSKSDTPSLVGSAEITNVAVVREQQGRSEDIVAKLRESQRIHSIQKSTIDALHSEVTRLESERKVSHSRESNLLREVDSLRTQVRDLESALQQKKGGIRELMSSCQAGSANAQRLKKQETRIRLLEKALLEKDEFTKRAMEELRAEAKKVCERYQSTVAELRQRLEVPKDDPELQKRISTLERENLDLRRALGGASVSLAVESAQPVQKLATEPKHHTDVTDKADKPGGQALKAPGSHELEITHLHSVIERLRAEICEHKQRNITLQSKLDSIHAEWDARLAEMKTNFALQIQTLRSAHNEELSRLEASHQTQLLEISKCSKADRGDSLASRLSRIVEEKGYDASLIAIGERLCFLEKRYCQKEEEKTHELLEMKRVAELEMKIQKEKTDLLLEQKNTQIKRFQVQLDELLAALSILQATS | not soluble
MADFKVLSSQDIMWALHELKGHYAITRKDFESHQHMENLTSQDEVPRDTRPFLMPLKNGRSYHQKPVEKGKREKK | not soluble
MGSDKIHHHHHHMLQQYHTKLKGTLALTDSYLTEKALQKEKGLYKFIWVRQGSITVEIDHQEMVLSKDDVISLTHLQHLEFKSIDGEYMTLLFNSNFYCIYGNDHEVSCSGFLFNGSSHLVRFTLNEEERRQLDQITEAMENEFTVSDSLQEEMLRILLKRFIIQCTRIARQRLDITREKESGFEIVRQYYNLVDEHYRTKKQVQDYADMLHKSPKTLSNIFSTCKLPSPLRVIHERVEAEAKRLLLYSNKSAKEIADILGFEDQASFSRFFKNMTGQSAVQFRNTEVGKN | not soluble
MSLGEEAAGEGGEAEKTITINVGLLVDETGPTSDVGKGYSLGAELAFKYFNEKGIYTKDGVRVNINYIKRDYAYNPTTAEEYYREFRDRYGVIAIIGWGTADTEKLSDQVDTDKITYISASYSAKLLVKPFNFYPAPDYSTQACSGLAFLASEFGQGKLALAYDSKVAYSRSPIGAIKKAAPSLGLQVVGDYDLPLRATEADAERIAREMLAADPDYVWCGNTISSCSLLGRAMAKVGLDAFLLTNVWGFDERSPQLIGEGGYGKVFGISPFIYPMFGQDVEGIQTIFEAARMNGVSEDQINLRVVQGFVNVWLLIKAIESVTSQDLQERGGEALKEALEANTFDLGGITADTIDYEPGFHLAYRKVFIIKLGENGELQLMGKFEAPSQVDCARYTIEEGHHHHHH | soluble
MARQHRLRAGRPVAAEACMSGGETGRTLRALFMSVSLGAGHDQAQQAVKQAFAERGVELLGAEHDSVEYLSTFERSFTVDLYEFELRYAPWLYRGFYWLTDQDQPWNIISRMFTWLGMGAFKDELRELRPEVVINSFWAPAAVCDTLRAQTGQRFLNCLIVTDYRAHLHWARRETDLLMVASEETRRQMLERGVRPEQVEVTGIPISPAFREVLAADRWALRAELFSEMSLRPGVPLLLLSGGGRGHYAAAADVLTELGNLGRAVQVLVPASRQGEGTETIGGATVHHLGFRRDLPRLLAASDLVVGKAGGLTVAEATALGVPLVIYAPIPGQEEHNADFLERHGAGLWARARHDVRPLVLRALDPAEHARLSAGARAVGIPDAADRVAGAILRRLGDGLGDELGDSRGPA | not soluble
MSLEVIKHDGPGRLGVIRLEPPVQTPALAGVDFTLSPFNSFFYPKDYKEYDFNLAPAIPLSYYTPDEIIKKAVKRLWEVDYSKFNAFYFPALKRTKHYEELFKIIEENDFDAIYIGNSKSMIKDYRGFVFTMRELREKFPNAVLITDLEPFFYPLAVYLGIDAFDIRSLKIYSYEGLGFTQFSPIIWDEPKEDPVEYAKKIIRLIRIAIHEGKLRYLVENFLPTSMNAGILRIADRENIEYLEKYTPVDDKTVVFISDYSMTRPEVYRWAKRVRERFEPPKDIELLLILPCSAKKPYSRSRSHTLYRSAVKEALGEKMHRVHELIVTSPYGVVPREWEWIAKYDIVVTGHWSEREVRLAGELLADVLEKYPDIPIIAHVEGGYREAVKLAMELSGRDVIFTAKGNSTTSRESLANLTKTLKEFDVREGHHHHHH | not soluble
SLNSSIDVDSLMRSVSRVFKFIDMPTEGKPTKSTKPYKNGQLSKVMIIENSHVKKDDIWPSGGQMTVKDLTAKYTEGGNAILENISFSISPGQRVGLLGRTGSGKSTLLSAFLRLLNTEGEIQIDGVSWDSITLQQWRKAFGVIPQKVFIFSGTFRKNLDPYEQWSDQEIWKVADEVGLRSVIEQFPGKLDFVLVDGGCVLSHGHKQLMCLARSVLSKAKILLLDEPSAHLDPVTYQIIRRTLKQAFADCTVILCEHRIEAMLECQQFLVIEENKVRQYDSIQKLLNERSLFRQAISPSDRVKLFPHRNSSKCKSKPQIAALKEETEEEVQDTRL | soluble
MNLDDKSLFLDAMEDVQPLKRATDVHWHPTRNQRAPQRIDTLQLDNFLTTGFLDIIPLSQPLEFRREGLQHGVLDKLRSGKYPQQASLNLLRQPVEECRKMVFSFIQQALADGLRNVLIIHGKGRDDKSHANIVRSYVARWLTEFDDVQAYCTALPHHGGSGACYVALRKTAQAKQENWERHAKRSR | soluble
MKIRILGSGTSTGVPEIGCTCAVCTSKDPRDCRLRTSALVYTDDATILLDCGPDFREQMLRVPFGKIDAVLISHEHYDHVGGLDDLRPFCRFGEVPIYAETYTAERLRSRMPYCFVEHSYPGVPNIPLREIEPNRPFLVNHTEVLPLRVMHGKLPILGYRIGKLGYITDMLTMPDESFEQLQGIEVLVMNALRIAPHNTHQSLSEALEAVKRIGAKETWLIHMSHHIGLQADVEKQLPPHVHFAFDGLELECLEHHHHHH | not soluble
MIANRPQHEKWAVIVNEFGEVGIDGAALLNDELAVAEIAGGCLCCVAGPQMTATVATLLRREKPDRLLIEASGLAHAAGVIDELRAKPLGEALEVAAVLTLVDPRQFIQPDYHRQPLYRDQISIADVLVANKIDTADIPTMEAFRAQAAALFPPKSLVGEVRDGQLDVAWLDAELAAKPRYRPAVLPDNASAWQSAGWTFDPELNFDGERLTRLFDGLPAKVPGLVRAKGVFRVLDSWVWLNWAAGQWGAAQVSWRRDSRFELIAPEFDAAAVEAWLKECLELEHHHHHH | not soluble
MRKFLSKTHHHTNPLWRVYRLVKFSKVFKNVIIIEFSKFIPSMVLKRHIYKQLLNINIGNQSSIAYKVMLDIFYPELITIGSNSVIGYNVTILTHEALVDEFRYGPVTIGSNTLIGANATILPGITIGDNVKVAAGTVVSKDIPDNGFAYGNPMYIKMIRR | not soluble
SGGRRSSWIKNWTLWKHFKDYFPIHLIKTQDLDPSHNYIFGFHPHGIMAVGAFGNFSVNYSDFKDLFPGFTSYLHVLPLWFWCPVFREYVMSVGLVSVSKKSVSYMVSKEGGGNISVIVLGGAKESLDAHPGKFTLFIRQRKGFVKIALTHGASLVPVVSFGENELFKQTDNPEGSWIRTVQNKLQKIMGFALPLFHARGVFQYNFGLMTYRKAIHTVVGRPIPVRQTLNPTQEQIEELHQTYMEELRKLFEEHKGKYGIPEHETLVLK | soluble
MYYGFDIGGTKIALGVFDSTRRLQWEKRVPTPHTSYSAFLDAVCELVEEADQRFGVKGSVGIGIPGMPETEDGTLYAANVPAASGKPLRADLSARLDRDVRLDNDANCFALSEAWDDEFTQYPLVMGLILGTGVGGGLVLNGKPITGQSYITGEFGHMRLPVDALTLMGFDFPLRRCGCGQMGCIENYLSGRGFAWLYQHYYDQSLQAPEIIALWEQGDEQAHAHVERYLDLLAVCLGNILTIVDPDLLVIGGGLSNFTAITTQLAERLPRHLLPVARAPRIERARHGDAGGMRGAAFLHLTD | soluble
MGSDKIHHHHHHLTDLKDALRTEALDAGFAKMGVCSPNAVPETAARLKAFVDAGFHGQMGWMAERMHWRGDASALWPEAKSVVMLAEPYTPDSDPLDALARKDRATISVYAQGRDYHDLVKKRLKRVGRWLLAQCPGEQIKVFVDTAPVMEKPLAQAAGLGWQGKHTNLLARDLGNWVFLGAIFTTVELPIDEPEAEHCGSCTACLDICPTNAFPAPFQLDARKCISYLTIEHKGPVDLALRAKLGNRIYGCDDCLAVCPWNKFAQTARDIRYAPRDDLRSPLLADLAALDDAGFRARFSGSPIKRIGRDRFVRNILYAIGNSGQAKLVDAARPLTDDPDVAVADAARWAMERLL | not soluble
